Assay results: US20110105394A1 (Novo Nordisk, published 2011)
*1 amine or outer side, *2 acyl side, *3 side chain or, on linkers, in order; H or OH if unused. Bridges are numbered along the chain shown (N, C = ends). Where no end group is shown, it is not given here. The star is where a group is joined. X1 = (S)‑4‑Carboxy‑4‑(17-carboxyheptadecanoylamino)butyryl, O=C(O)CCCCCCCCCCCCCCCCC(=O)N[C@@H](CCC(=O)*)C(=O)O; C20 diacid = O=C(O)CCCCCCCCCCCCCCCCCCC(=O)*; γGlu = O=C(O)[C@H](CCC(=O)[*:2])N[*:1]; AEEA = NCCOCCOCC(=O)O

T1: Amylin 3(a) receptor (human calcitonin receptor (CTa) with RAMP-3) (human, UniProt P30988 25-474; O60896 24-148, limits assumed)
T1 sequence (looked up) 1: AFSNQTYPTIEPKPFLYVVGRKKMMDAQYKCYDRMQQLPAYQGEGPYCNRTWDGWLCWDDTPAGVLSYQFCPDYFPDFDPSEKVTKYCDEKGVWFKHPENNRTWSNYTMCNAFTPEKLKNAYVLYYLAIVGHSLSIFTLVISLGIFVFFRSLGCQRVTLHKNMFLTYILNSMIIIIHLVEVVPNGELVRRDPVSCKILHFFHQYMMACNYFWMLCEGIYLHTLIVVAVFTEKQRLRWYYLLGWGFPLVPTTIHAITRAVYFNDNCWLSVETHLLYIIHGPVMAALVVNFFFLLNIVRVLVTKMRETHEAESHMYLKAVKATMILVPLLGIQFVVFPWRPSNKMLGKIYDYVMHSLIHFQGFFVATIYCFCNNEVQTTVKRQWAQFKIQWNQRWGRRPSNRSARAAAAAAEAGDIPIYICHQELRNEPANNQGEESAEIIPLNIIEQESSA
T1 sequence (looked up) 2: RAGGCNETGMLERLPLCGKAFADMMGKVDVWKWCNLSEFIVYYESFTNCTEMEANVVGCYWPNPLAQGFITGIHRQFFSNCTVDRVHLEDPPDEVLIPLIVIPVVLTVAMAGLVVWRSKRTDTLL


Target: T1, Amylin 3(a) receptor (human calcitonin …)
Assay: cell-based or functional assay

Binder	Potency Luciferase [nM]
{C20 diacid-γGlu}-CNTATCATQRLANFLGHSSNNFGPILPPTNVGSNTY-NH2 (disulfide 1-6; SMILES CC[C@H](C)[C@H](NC(=O)[C@@H]1CCCN1C(=O)CNC(=O)[C@H](Cc1ccccc1)NC(=O)[C@H](CC(N)=O)NC(=O)[C@H](CC(N)=O)NC(=O)[C@H](CO)NC(=O)[C@H](CO)NC(=O)[C@H](Cc1c[nH]cn1)NC(=O)CNC(=O)[C@H](CC(C)C)NC(=O)[C@H](Cc1ccccc1)NC(=O)[C@H](CC(N)=O)NC(=O)[C@H](C)NC(=O)[C@H](CC(C)C)NC(=O)[C@H](CCCNC(=N)N)NC(=O)[C@H](CCC(N)=O)NC(=O)[C@@H](NC(=O)[C@H](C)NC(=O)[C@@H]1CSSC[C@H](NC(=O)CC[C@H](NC(=O)CCCCCCCCCCCCCCCCCCC(=O)O)C(=O)O)C(=O)N[C@@H](CC(N)=O)C(=O)N[C@@H]([C@@H](C)O)C(=O)N[C@@H](C)C(=O)N[C@@H]([C@@H](C)O)C(=O)N1)[C@@H](C)O)C(=O)N[C@@H](CC(C)C)C(=O)N1CCC[C@H]1C(=O)N1CCC[C@H]1C(=O)N[C@H](C(=O)N[C@@H](CC(N)=O)C(=O)N[C@H](C(=O)NCC(=O)N[C@@H](CO)C(=O)N[C@@H](CC(N)=O)C(=O)N[C@H](C(=O)N[C@@H](Cc1ccc(O)cc1)C(N)=O)[C@@H](C)O)C(C)C)[C@@H](C)O) [N-alpha-[(S)-4-Carboxy-4-(19-carboxynonadecanoylamino)butyryl]-[Gly17]-pramlintide (2-37)]	0.4
{C20 diacid-γGlu}-CNTATCATQRLANFLRHSSNNFGPILPPTNVGSNTY-NH2 (disulfide 1-6; SMILES CC[C@H](C)[C@H](NC(=O)[C@@H]1CCCN1C(=O)CNC(=O)[C@H](Cc1ccccc1)NC(=O)[C@H](CC(N)=O)NC(=O)[C@H](CC(N)=O)NC(=O)[C@H](CO)NC(=O)[C@H](CO)NC(=O)[C@H](Cc1c[nH]cn1)NC(=O)[C@H](CCCNC(=N)N)NC(=O)[C@H](CC(C)C)NC(=O)[C@H](Cc1ccccc1)NC(=O)[C@H](CC(N)=O)NC(=O)[C@H](C)NC(=O)[C@H](CC(C)C)NC(=O)[C@H](CCCNC(=N)N)NC(=O)[C@H](CCC(N)=O)NC(=O)[C@@H](NC(=O)[C@H](C)NC(=O)[C@@H]1CSSC[C@H](NC(=O)CC[C@H](NC(=O)CCCCCCCCCCCCCCCCCCC(=O)O)C(=O)O)C(=O)N[C@@H](CC(N)=O)C(=O)N[C@@H]([C@@H](C)O)C(=O)N[C@@H](C)C(=O)N[C@@H]([C@@H](C)O)C(=O)N1)[C@@H](C)O)C(=O)N[C@@H](CC(C)C)C(=O)N1CCC[C@H]1C(=O)N1CCC[C@H]1C(=O)N[C@H](C(=O)N[C@@H](CC(N)=O)C(=O)N[C@H](C(=O)NCC(=O)N[C@@H](CO)C(=O)N[C@@H](CC(N)=O)C(=O)N[C@H](C(=O)N[C@@H](Cc1ccc(O)cc1)C(N)=O)[C@@H](C)O)C(C)C)[C@@H](C)O) [N-alpha-[(S)-4-Carboxy-4-(19-carboxynonadecanoylamino)butyryl]-[Arg17]-pramlintide (2-37)]	0.2
{C20 diacid-γGlu-AEEA}-CNTATCATQRLANFLHHSSNNFGPILPPTNVGSNTY-NH2 (disulfide 1-6)	0.1
X1-CNTATCATQRLANFLHHSSNNFGPILPPTNVGSNTY-NH2 (disulfide 1-6) [N-alpha-[(S)-4-Carboxy-4-(17-carboxyheptadecanoylamino)butyryl]-[His17]-pramlintide (2-37)]	0.08

Continued, values first:

Potency Luciferase [nM]	Binder
0.1	{C20 diacid-γGlu}-CNTATCATQRLANFLSHSSNNFGPILPPTNVGSNTY-NH2 (disulfide 1-6; SMILES CC[C@H](C)[C@H](NC(=O)[C@@H]1CCCN1C(=O)CNC(=O)[C@H](Cc1ccccc1)NC(=O)[C@H](CC(N)=O)NC(=O)[C@H](CC(N)=O)NC(=O)[C@H](CO)NC(=O)[C@H](CO)NC(=O)[C@H](Cc1c[nH]cn1)NC(=O)[C@H](CO)NC(=O)[C@H](CC(C)C)NC(=O)[C@H](Cc1ccccc1)NC(=O)[C@H](CC(N)=O)NC(=O)[C@H](C)NC(=O)[C@H](CC(C)C)NC(=O)[C@H](CCCNC(=N)N)NC(=O)[C@H](CCC(N)=O)NC(=O)[C@@H](NC(=O)[C@H](C)NC(=O)[C@@H]1CSSC[C@H](NC(=O)CC[C@H](NC(=O)CCCCCCCCCCCCCCCCCCC(=O)O)C(=O)O)C(=O)N[C@@H](CC(N)=O)C(=O)N[C@@H]([C@@H](C)O)C(=O)N[C@@H](C)C(=O)N[C@@H]([C@@H](C)O)C(=O)N1)[C@@H](C)O)C(=O)N[C@@H](CC(C)C)C(=O)N1CCC[C@H]1C(=O)N1CCC[C@H]1C(=O)N[C@H](C(=O)N[C@@H](CC(N)=O)C(=O)N[C@H](C(=O)NCC(=O)N[C@@H](CO)C(=O)N[C@@H](CC(N)=O)C(=O)N[C@H](C(=O)N[C@@H](Cc1ccc(O)cc1)C(N)=O)[C@@H](C)O)C(C)C)[C@@H](C)O) [N-alpha-[(S)-4-Carboxy-4-(19-carboxynonadecanoylamino)butyryl]-[Ser17]-pramlintide (2-37)]
0.1	CNTATCATQRLANFLAHSSNNFGPILPPTNVGSNTY-NH2 (disulfide 1-6; not fully specified (N-terminus); printed as N-alpha-[(S)-4-Carboxy-4-(19-carboxynonadecanoylamino)butyryl]-[Ala17]-pramlintide (2-37)) [N-alpha-[(S)-4-Carboxy-4-(19-carboxynonadecanoylamino)butyryl]-[Ala17]-pramlintide (2-37)]
8	{C20 diacid-γGlu}-CNTATCATQRLANFLPHSSNNFGPILPPTNVGSNTY-NH2 (disulfide 1-6; SMILES CC[C@H](C)[C@H](NC(=O)[C@@H]1CCCN1C(=O)CNC(=O)[C@H](Cc1ccccc1)NC(=O)[C@H](CC(N)=O)NC(=O)[C@H](CC(N)=O)NC(=O)[C@H](CO)NC(=O)[C@H](CO)NC(=O)[C@H](Cc1c[nH]cn1)NC(=O)[C@@H]1CCCN1C(=O)[C@H](CC(C)C)NC(=O)[C@H](Cc1ccccc1)NC(=O)[C@H](CC(N)=O)NC(=O)[C@H](C)NC(=O)[C@H](CC(C)C)NC(=O)[C@H](CCCNC(=N)N)NC(=O)[C@H](CCC(N)=O)NC(=O)[C@@H](NC(=O)[C@H](C)NC(=O)[C@@H]1CSSC[C@H](NC(=O)CC[C@H](NC(=O)CCCCCCCCCCCCCCCCCCC(=O)O)C(=O)O)C(=O)N[C@@H](CC(N)=O)C(=O)N[C@@H]([C@@H](C)O)C(=O)N[C@@H](C)C(=O)N[C@@H]([C@@H](C)O)C(=O)N1)[C@@H](C)O)C(=O)N[C@@H](CC(C)C)C(=O)N1CCC[C@H]1C(=O)N1CCC[C@H]1C(=O)N[C@H](C(=O)N[C@@H](CC(N)=O)C(=O)N[C@H](C(=O)NCC(=O)N[C@@H](CO)C(=O)N[C@@H](CC(N)=O)C(=O)N[C@H](C(=O)N[C@@H](Cc1ccc(O)cc1)C(N)=O)[C@@H](C)O)C(C)C)[C@@H](C)O) [N-alpha-[(S)-4-Carboxy-4-(19-carboxynonadecanoylamino)butyryl]-[Pro17]-pramlintide (2-37)]
